The target in the assay is T1, CheA3P1, the isolated P1 (Hpt, histidine-containing phosphotransfer) domain of CheA3 (residues 1-135), unphosphorylated.
T1 chain: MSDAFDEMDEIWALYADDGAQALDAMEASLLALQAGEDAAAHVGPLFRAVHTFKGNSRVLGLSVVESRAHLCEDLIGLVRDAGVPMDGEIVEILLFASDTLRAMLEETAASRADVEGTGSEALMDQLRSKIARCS
Description: SPR. Conditions: chain shown with the change; CheA3P1 injected over surfaces coupled with the respective RR; CheA3P1 concentration ranging from 120 nM to 2 mM; parent: ND.

Numbering of substitutions follows the chain as printed. Names and notes keep the numbering of the source.

B1: CheY4 (wild type) with an engineered C-terminal biotinylation tag, for SPR surfaces P12A; S13M; C16L; M17Y (protein)
chain: MTKTVLAVDDSAMIRLYVALTLREAGYEVIEASDGQEALDLALSRPVDAILTDQNMPRLDGLGFIRAFRSRPEGKGTPIVFLSTESADTLKAEARAAGALGWMVKPFTQAQLLAVMKKLLG
Consider B1, for which the Kd stood at 365 µM.

B2: CheY4 (wild type) with an engineered C-terminal biotinylation tag, for SPR surfaces P12A; S13M (protein)
chain: B1 chain with L16C, Y17M
Regarding B2, the Kd amounted to 678 µM.
